# T1: Angptl2-FLAG, full-length human Angptl2 secreted from transfected 293T cells (human, UniProt Q9UKU9 23-493)
# T1 construct: Runs partly as a high molecular weight (>250 kD) multimer; also called full-length Angptl2; FLAG-tagged Angptl2; not shown: FLAG tag at the C terminus
# T1 sequence: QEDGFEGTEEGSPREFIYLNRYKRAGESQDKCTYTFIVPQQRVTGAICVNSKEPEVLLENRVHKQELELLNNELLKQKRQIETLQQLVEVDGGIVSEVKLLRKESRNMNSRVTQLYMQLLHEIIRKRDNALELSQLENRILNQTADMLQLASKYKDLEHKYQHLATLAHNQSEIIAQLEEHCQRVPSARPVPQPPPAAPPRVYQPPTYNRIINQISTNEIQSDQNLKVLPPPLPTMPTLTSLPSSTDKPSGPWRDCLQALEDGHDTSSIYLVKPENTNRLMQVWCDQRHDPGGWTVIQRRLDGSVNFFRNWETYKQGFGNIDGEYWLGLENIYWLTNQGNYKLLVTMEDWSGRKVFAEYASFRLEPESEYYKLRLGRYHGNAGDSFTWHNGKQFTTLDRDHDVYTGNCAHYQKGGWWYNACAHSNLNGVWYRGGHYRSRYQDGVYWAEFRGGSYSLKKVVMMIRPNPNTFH
# Target: T1, Angptl2-FLAG, full-length human Angptl2 …
# Test: flow cytometry, ligand on mutant LILRB2 (FIG. 6G)
# Procedure: (§1) Flow cytometry. […] Cells were harvested at 48 h for analysis. […] Anti-LILRB2-PE was used as indicated. Cells were analyzed using either a FACSCalibur or FACSAria instrument (Becton Dickinson).
row,binding result,Binder
1,binds,LILRB2 H92S on 293T cells (receptor) QTGTIPKPTLWAEPDSVITQGSPVTLSCQGSLEAQEYRLYREKKSASWITRIRPELVKNGQFHIPSITWESTGRYGCQYYSRARWSELSDPLVLVMTGAYPKPTLSAQPSPVVTSGGRVTLQCESQVAFGGFILCKEGEEEHPQCLNSQPHARGSSRAIFSVGPVSPNRRWSHRCYGYDLNSPYVWSSPSDLLELLVPGVSKKPSLSVQPGPVVAPGESLTLQCVSDVGYDRFVLYKEGERDLRQLPGRQPQAGLSQANFTLGPVSRSYGGQYRCYGAHNLSSECSAPSDPLDILITGQIRGTPFISVQPGPTVASGENVTLLCQSWRQFHTFLLTKAGAADAPLRLRSIHEYPKYQAEFPMSPVTSAHAGTYRCYGSLNSDPYLLSHPSEPLELVVSGPSMGSSPPPTGPISTPGPEDQPLTPTGSDPQSGLGRHLGVVIGILVAVVLLLLLLLLLFLILRHRRQGKHWTSTQRKADFQHPAGAVGPEPTDRGLQWRSSPAADAQEENLYAAVKDTQPEDGVEMDTRAAASEAPQDVTYAQLHSLTLRRKATEPPPSQEREPPAEPSIYATLAIH
2,binds,"full-length LILRB2 G94D on 293T cells (receptor, also called single mutation in G94) QTGTIPKPTLWAEPDSVITQGSPVTLSCQGSLEAQEYRLYREKKSASWITRIRPELVKNGQFHIPSITWEHTDRYGCQYYSRARWSELSDPLVLVMTGAYPKPTLSAQPSPVVTSGGRVTLQCESQVAFGGFILCKEGEEEHPQCLNSQPHARGSSRAIFSVGPVSPNRRWSHRCYGYDLNSPYVWSSPSDLLELLVPGVSKKPSLSVQPGPVVAPGESLTLQCVSDVGYDRFVLYKEGERDLRQLPGRQPQAGLSQANFTLGPVSRSYGGQYRCYGAHNLSSECSAPSDPLDILITGQIRGTPFISVQPGPTVASGENVTLLCQSWRQFHTFLLTKAGAADAPLRLRSIHEYPKYQAEFPMSPVTSAHAGTYRCYGSLNSDPYLLSHPSEPLELVVSGPSMGSSPPPTGPISTPGPEDQPLTPTGSDPQSGLGRHLGVVIGILVAVVLLLLLLLLLFLILRHRRQGKHWTSTQRKADFQHPAGAVGPEPTDRGLQWRSSPAADAQEENLYAAVKDTQPEDGVEMDTRAAASEAPQDVTYAQLHSLTLRRKATEPPPSQEREPPAEPSIYATLAIH"
3,binds,LILRB2 MHC-S1 mutant (R59A/Y61A) on 293T cells (receptor) QTGTIPKPTLWAEPDSVITQGSPVTLSCQGSLEAQEYALAREKKSASWITRIRPELVKNGQFHIPSITWEHTGRYGCQYYSRARWSELSDPLVLVMTGAYPKPTLSAQPSPVVTSGGRVTLQCESQVAFGGFILCKEGEEEHPQCLNSQPHARGSSRAIFSVGPVSPNRRWSHRCYGYDLNSPYVWSSPSDLLELLVPGVSKKPSLSVQPGPVVAPGESLTLQCVSDVGYDRFVLYKEGERDLRQLPGRQPQAGLSQANFTLGPVSRSYGGQYRCYGAHNLSSECSAPSDPLDILITGQIRGTPFISVQPGPTVASGENVTLLCQSWRQFHTFLLTKAGAADAPLRLRSIHEYPKYQAEFPMSPVTSAHAGTYRCYGSLNSDPYLLSHPSEPLELVVSGPSMGSSPPPTGPISTPGPEDQPLTPTGSDPQSGLGRHLGVVIGILVAVVLLLLLLLLLFLILRHRRQGKHWTSTQRKADFQHPAGAVGPEPTDRGLQWRSSPAADAQEENLYAAVKDTQPEDGVEMDTRAAASEAPQDVTYAQLHSLTLRRKATEPPPSQEREPPAEPSIYATLAIH
4,binds,LILRB2 T93A on 293T cells (receptor) QTGTIPKPTLWAEPDSVITQGSPVTLSCQGSLEAQEYRLYREKKSASWITRIRPELVKNGQFHIPSITWEHAGRYGCQYYSRARWSELSDPLVLVMTGAYPKPTLSAQPSPVVTSGGRVTLQCESQVAFGGFILCKEGEEEHPQCLNSQPHARGSSRAIFSVGPVSPNRRWSHRCYGYDLNSPYVWSSPSDLLELLVPGVSKKPSLSVQPGPVVAPGESLTLQCVSDVGYDRFVLYKEGERDLRQLPGRQPQAGLSQANFTLGPVSRSYGGQYRCYGAHNLSSECSAPSDPLDILITGQIRGTPFISVQPGPTVASGENVTLLCQSWRQFHTFLLTKAGAADAPLRLRSIHEYPKYQAEFPMSPVTSAHAGTYRCYGSLNSDPYLLSHPSEPLELVVSGPSMGSSPPPTGPISTPGPEDQPLTPTGSDPQSGLGRHLGVVIGILVAVVLLLLLLLLLFLILRHRRQGKHWTSTQRKADFQHPAGAVGPEPTDRGLQWRSSPAADAQEENLYAAVKDTQPEDGVEMDTRAAASEAPQDVTYAQLHSLTLRRKATEPPPSQEREPPAEPSIYATLAIH
5,binds,LILRB2 Q99R on 293T cells (receptor) QTGTIPKPTLWAEPDSVITQGSPVTLSCQGSLEAQEYRLYREKKSASWITRIRPELVKNGQFHIPSITWEHTGRYGCRYYSRARWSELSDPLVLVMTGAYPKPTLSAQPSPVVTSGGRVTLQCESQVAFGGFILCKEGEEEHPQCLNSQPHARGSSRAIFSVGPVSPNRRWSHRCYGYDLNSPYVWSSPSDLLELLVPGVSKKPSLSVQPGPVVAPGESLTLQCVSDVGYDRFVLYKEGERDLRQLPGRQPQAGLSQANFTLGPVSRSYGGQYRCYGAHNLSSECSAPSDPLDILITGQIRGTPFISVQPGPTVASGENVTLLCQSWRQFHTFLLTKAGAADAPLRLRSIHEYPKYQAEFPMSPVTSAHAGTYRCYGSLNSDPYLLSHPSEPLELVVSGPSMGSSPPPTGPISTPGPEDQPLTPTGSDPQSGLGRHLGVVIGILVAVVLLLLLLLLLFLILRHRRQGKHWTSTQRKADFQHPAGAVGPEPTDRGLQWRSSPAADAQEENLYAAVKDTQPEDGVEMDTRAAASEAPQDVTYAQLHSLTLRRKATEPPPSQEREPPAEPSIYATLAIH
6,binds,LILRB2 G392D on 293T cells (receptor) QTGTIPKPTLWAEPDSVITQGSPVTLSCQGSLEAQEYRLYREKKSASWITRIRPELVKNGQFHIPSITWEHTGRYGCQYYSRARWSELSDPLVLVMTGAYPKPTLSAQPSPVVTSGGRVTLQCESQVAFGGFILCKEGEEEHPQCLNSQPHARGSSRAIFSVGPVSPNRRWSHRCYGYDLNSPYVWSSPSDLLELLVPGVSKKPSLSVQPGPVVAPGESLTLQCVSDVGYDRFVLYKEGERDLRQLPGRQPQAGLSQANFTLGPVSRSYGGQYRCYGAHNLSSECSAPSDPLDILITGQIRGTPFISVQPGPTVASGENVTLLCQSWRQFHTFLLTKAGAADAPLRLRSIHEYPKYQAEFPMSPVTSAHADTYRCYGSLNSDPYLLSHPSEPLELVVSGPSMGSSPPPTGPISTPGPEDQPLTPTGSDPQSGLGRHLGVVIGILVAVVLLLLLLLLLFLILRHRRQGKHWTSTQRKADFQHPAGAVGPEPTDRGLQWRSSPAADAQEENLYAAVKDTQPEDGVEMDTRAAASEAPQDVTYAQLHSLTLRRKATEPPPSQEREPPAEPSIYATLAIH
7,binds,LILRB2 T393E on 293T cells (receptor) QTGTIPKPTLWAEPDSVITQGSPVTLSCQGSLEAQEYRLYREKKSASWITRIRPELVKNGQFHIPSITWEHTGRYGCQYYSRARWSELSDPLVLVMTGAYPKPTLSAQPSPVVTSGGRVTLQCESQVAFGGFILCKEGEEEHPQCLNSQPHARGSSRAIFSVGPVSPNRRWSHRCYGYDLNSPYVWSSPSDLLELLVPGVSKKPSLSVQPGPVVAPGESLTLQCVSDVGYDRFVLYKEGERDLRQLPGRQPQAGLSQANFTLGPVSRSYGGQYRCYGAHNLSSECSAPSDPLDILITGQIRGTPFISVQPGPTVASGENVTLLCQSWRQFHTFLLTKAGAADAPLRLRSIHEYPKYQAEFPMSPVTSAHAGEYRCYGSLNSDPYLLSHPSEPLELVVSGPSMGSSPPPTGPISTPGPEDQPLTPTGSDPQSGLGRHLGVVIGILVAVVLLLLLLLLLFLILRHRRQGKHWTSTQRKADFQHPAGAVGPEPTDRGLQWRSSPAADAQEENLYAAVKDTQPEDGVEMDTRAAASEAPQDVTYAQLHSLTLRRKATEPPPSQEREPPAEPSIYATLAIH
8,binds,"full-length LILRB2 R95E on 293T cells (receptor, also called single mutation in R95) QTGTIPKPTLWAEPDSVITQGSPVTLSCQGSLEAQEYRLYREKKSASWITRIRPELVKNGQFHIPSITWEHTGEYGCQYYSRARWSELSDPLVLVMTGAYPKPTLSAQPSPVVTSGGRVTLQCESQVAFGGFILCKEGEEEHPQCLNSQPHARGSSRAIFSVGPVSPNRRWSHRCYGYDLNSPYVWSSPSDLLELLVPGVSKKPSLSVQPGPVVAPGESLTLQCVSDVGYDRFVLYKEGERDLRQLPGRQPQAGLSQANFTLGPVSRSYGGQYRCYGAHNLSSECSAPSDPLDILITGQIRGTPFISVQPGPTVASGENVTLLCQSWRQFHTFLLTKAGAADAPLRLRSIHEYPKYQAEFPMSPVTSAHAGTYRCYGSLNSDPYLLSHPSEPLELVVSGPSMGSSPPPTGPISTPGPEDQPLTPTGSDPQSGLGRHLGVVIGILVAVVLLLLLLLLLFLILRHRRQGKHWTSTQRKADFQHPAGAVGPEPTDRGLQWRSSPAADAQEENLYAAVKDTQPEDGVEMDTRAAASEAPQDVTYAQLHSLTLRRKATEPPPSQEREPPAEPSIYATLAIH"

# Target: T1, Angptl2-FLAG, full-length human Angptl2 …
# Test: flow cytometry, Angptl2 on 293T cells expressing the domain
# Procedure: as §1
# LILRB2 contains four extracellular immunoglobulin (Ig)-like domains. Takai et al., J Biomed Biotechnol. 2011; 2011:275302. […] To test this hypothesis, a number of domain and site-specific mutations of LILRB2 were generated for the flow cytometry-based cell surface ligand binding assay and chimeric reporter assay.
row,binding result,Binder
1,no binding,"LILRB2 Ig2 domain expressed on 293T cells (receptor, The range is stated for the chimeric reporter constructs; also called 2nd Ig domain) AYPKPTLSAQPSPVVTSGGRVTLQCESQVAFGGFILCKEGEEEHPQCLNSQPHARGSSRAIFSVGPVSPNRRWSHRCYGYDLNSPYVWSSPSDLLELLVP"
2,no binding,"LILRB2 Ig3 domain expressed on 293T cells (receptor, The range is stated for the chimeric reporter constructs; also called 3rd Ig domain) VSKKPSLSVQPGPVVAPGESLTLQCVSDVGYDRFVLYKEGERDLRQLPGRQPQAGLSQANFTLGPVSRSYGGQYRCYGAHNLSSECSAPSDPLDILITGQ"
3,no binding,"LILRB2 Ig1 domain expressed on 293T cells (receptor, The range is stated for the chimeric reporter constructs; also called 1st Ig domain) GTIPKPTLWAEPDSVITQGSPVTLSCQGSLEAQEYRLYREKKSASWITRIRPELVKNGQFHIPSITWEHTGRYGCQYYSRARWSELSDPLVLVMTG"
